Broadly, the kcat is the number of substrate molecules converted per active site and unit of time at saturation. A word on the KM: it is the concentration of substrate that gives half-maximal velocity.

± gives the standard error. For some assays here: Variants at the floor of the assay were thinned out. A value given as a limit tells only on which side of the number the result lay.

The values below come from the supplement of paper PMC7125110.

The labels stand for the following.
B1: glmS ribozyme (parent)
chain: AUAAAAGCGCCAGAACUACAGAAAUGUAGUUGACGAGGAGGAGGUUUAUCGAAUUUUCGGCGGAUGCCUCCAAA

Holding throughout (settings): with glucosamine-6-phosphate
The variants in data set [1] derive from B1. As to the kind of experiment: kcat; higher = faster cleavage; RNA array. The method, boiled down: (§1)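 Tiles bearing barcoded ribozyme variants, transcribed in situ by E. coli RNA polymerase on sequenced MiSeq chips, were imaged over ~14 h at 37 °C using a hybridised Cy3 probe. Glucosamine-6-phosphate was supplied at 40 μM to 10 mM in HEPES/KCl/Mg(OAc)2 buffer. kobs came from one- or two-exponential decay fits to normalised per-tile medians, and weighted Michaelis–Menten fits then provided kcat and KM.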

Variants of B1 are the subject of data set [2]. As to the kind of experiment: KM; higher = weaker cofactor use; RNA array. A digest of the protocol: as §1
Data set [3] covers variants of B1. As to the kind of experiment: self-cleavage kobs at 640 uM GlcN6P; higher = faster cleavage; RNA array. The method, boiled down: as §1
In data set [4] the parent is B1. As to the kind of experiment: self-cleavage kobs at 2500 uM GlcN6P; higher = faster cleavage; RNA array. A digest of the protocol:
as §1

In data set [5] the parent is B1. As to the kind of experiment: self-cleavage kobs at 10000 uM GlcN6P; higher = faster cleavage; RNA array. A digest of the protocol:
as §1

Data set [6] covers variants of B1. As to the kind of experiment: self-cleavage kobs at 40 uM GlcN6P; higher = faster cleavage; RNA array. The method, boiled down: as §1
The variants in data set [7] derive from B1. Kind of data set: self-cleavage kobs at 160 uM GlcN6P; higher = faster cleavage; RNA array. A digest of the protocol:
as §1

With A53G U57A, the turnover number (kcat) in data set [1] amounted to 0.000309 ± 2.3e-05 s⁻¹. For the same variant, in data set [2], the KM is 3400 ± 490 µM. Further, in data set [3], the “self-cleavage kobs at 640 uM GlcN6P” value was 4.7e-05 ± 1.1e-05 s⁻¹. Also, the “self-cleavage kobs at 2500 uM GlcN6P” value in data set [4] stood at 0.000134 ± 2.3e-05 s⁻¹. Also, in data set [5], the “self-cleavage kobs at 10000 uM GlcN6P” value is 0.00023 ± 2.9e-05 s⁻¹.
G60C C68A: the kcat in data set [1] was found to be 1.32e-05 ± 4.3e-06 s⁻¹. In addition, in data set [6], the “self-cleavage kobs at 40 uM GlcN6P” value was less than 1e-05 s⁻¹. For the same variant, the “self-cleavage kobs at 10000 uM GlcN6P” value in data set [5] was less than 1e-05 s⁻¹.
For the variant A14G G59A, the kcat in data set [1] was found to be 0.000294 ± 1.8e-05 s⁻¹. Moreover, the KM in data set [2] was found to be 2010 ± 250 µM. The “self-cleavage kobs at 640 uM GlcN6P” value in data set [3] came out at 6.96e-05 ± 1.2e-05 s⁻¹. Further, the “self-cleavage kobs at 2500 uM GlcN6P” value in data set [4] was found to be 0.000183 ± 3.7e-05 s⁻¹. Further, the “self-cleavage kobs at 10000 uM GlcN6P” value in data set [5] was determined as 0.000239 ± 3e-05 s⁻¹.
Take A53G G59A: in data set [1], the kcat came to 0.000102 ± 1.3e-05 s⁻¹. Also, in data set [2], the KM stood at 4360 ± 1300 µM. Besides, in data set [4], the “self-cleavage kobs at 2500 uM GlcN6P” value was 3.91e-05 ± 1.5e-05 s⁻¹. Further, the “self-cleavage kobs at 10000 uM GlcN6P” value in data set [5] turned out to be 7e-05 ± 1.9e-05 s⁻¹.
As to C10U G29A, the kcat in data set [1] was less than 1e-05 s⁻¹. The “self-cleavage kobs at 40 uM GlcN6P” value in data set [6] is less than 1e-05 s⁻¹. In addition, the “self-cleavage kobs at 10000 uM GlcN6P” value in data set [5] is less than 1e-05 s⁻¹.
For the variant U65G U69A, in data set [1], the kcat was found to be 0.000187 ± 3.2e-05 s⁻¹. Besides, the KM in data set [2] worked out at 1450 ± 480 µM. In data set [3], the “self-cleavage kobs at 640 uM GlcN6P” value stood at 5.5e-05 ± 1.2e-05 s⁻¹. Also, in data set [4], the “self-cleavage kobs at 2500 uM GlcN6P” value is 0.000116 ± 2.2e-05 s⁻¹. In data set [5], the “self-cleavage kobs at 10000 uM GlcN6P” value was determined as 0.000174 ± 5.3e-05 s⁻¹.
For U65G U69G, the kcat in data set [1] worked out at 6.55e-05 ± 6.1e-06 s⁻¹. Also, the “self-cleavage kobs at 160 uM GlcN6P” value in data set [7] is 4.06e-05 ± 1.8e-05 s⁻¹. In addition, the “self-cleavage kobs at 640 uM GlcN6P” value in data set [3] came to 3.94e-05 ± 1.3e-05 s⁻¹. Besides, the “self-cleavage kobs at 2500 uM GlcN6P” value in data set [4] is 6.29e-05 ± 1.2e-05 s⁻¹. The “self-cleavage kobs at 10000 uM GlcN6P” value in data set [5] is 6.56e-05 ± 1.1e-05 s⁻¹.
On to C34G G37U, for which the kcat in data set [1] was less than 1e-05 s⁻¹. In addition, in data set [3], the “self-cleavage kobs at 640 uM GlcN6P” value was less than 1e-05 s⁻¹. In data set [5], the “self-cleavage kobs at 10000 uM GlcN6P” value is less than 1e-05 s⁻¹.
As for G13A A14G, the kcat in data set [1] stood at 0.00208 ± 0.00043 s⁻¹. In addition, the KM in data set [2] stood at 3430 ± 1000 µM. Moreover, the “self-cleavage kobs at 40 uM GlcN6P” value in data set [6] turned out to be 3.73e-05 ± 1.1e-05 s⁻¹. Also, the “self-cleavage kobs at 160 uM GlcN6P” value in data set [7] came to 7.81e-05 ± 1.4e-05 s⁻¹. Further, the “self-cleavage kobs at 640 uM GlcN6P” value in data set [3] worked out at 0.000393 ± 6.9e-05 s⁻¹. The “self-cleavage kobs at 2500 uM GlcN6P” value in data set [4] amounted to 0.000888 ± 0.00012 s⁻¹. The “self-cleavage kobs at 10000 uM GlcN6P” value in data set [5] is 0.00151 ± 0.00023 s⁻¹.
For the variant U46C U49G, the kcat in data set [1] is 0.000109 ± 8.3e-06 s⁻¹. The KM in data set [2] stood at 817 ± 220 µM. In addition, the “self-cleavage kobs at 640 uM GlcN6P” value in data set [3] came out at 4.66e-05 ± 1.2e-05 s⁻¹. Further, the “self-cleavage kobs at 2500 uM GlcN6P” value in data set [4] amounted to 8.96e-05 ± 1.6e-05 s⁻¹. In addition, the “self-cleavage kobs at 10000 uM GlcN6P” value in data set [5] came out at 9.78e-05 ± 1.5e-05 s⁻¹.
For the variant G38A C71U, the turnover number (kcat) in data set [1] was less than 1e-05 s⁻¹.
For the variant U56C U69C, in data set [1], the kcat was 3.67e-05 ± 7.4e-06 s⁻¹. In data set [6], the “self-cleavage kobs at 40 uM GlcN6P” value was less than 1e-05 s⁻¹. In data set [5], the “self-cleavage kobs at 10000 uM GlcN6P” value was determined as 3.13e-05 ± 1.3e-05 s⁻¹.
Regarding U55G C70A, the kcat in data set [1] is 0.000145 ± 2.6e-05 s⁻¹. For the same variant, in data set [6], the “self-cleavage kobs at 40 uM GlcN6P” value amounted to 5.03e-05 ± 1.3e-05 s⁻¹. The “self-cleavage kobs at 160 uM GlcN6P” value in data set [7] stood at 5.52e-05 ± 1.4e-05 s⁻¹. In addition, the “self-cleavage kobs at 640 uM GlcN6P” value in data set [3] came to 0.00015 ± 3e-05 s⁻¹. In data set [4], the “self-cleavage kobs at 2500 uM GlcN6P” value is 0.000147 ± 2.4e-05 s⁻¹. Further, the “self-cleavage kobs at 10000 uM GlcN6P” value in data set [5] came out at 0.000131 ± 2.6e-05 s⁻¹.
Regarding U54G G66U, the kcat in data set [1] was determined as 0.00193 ± 0.00025 s⁻¹. In data set [2], the KM was found to be 1570 ± 340 µM. For the same variant, the “self-cleavage kobs at 40 uM GlcN6P” value in data set [6] was 5.67e-05 ± 5.9e-06 s⁻¹. The “self-cleavage kobs at 160 uM GlcN6P” value in data set [7] came out at 0.000183 ± 2.7e-05 s⁻¹. The “self-cleavage kobs at 640 uM GlcN6P” value in data set [3] is 0.000509 ± 4.8e-05 s⁻¹. Further, the “self-cleavage kobs at 2500 uM GlcN6P” value in data set [4] is 0.000956 ± 0.00014 s⁻¹. Also, the “self-cleavage kobs at 10000 uM GlcN6P” value in data set [5] came to 0.00181 ± 0.00013 s⁻¹.
As for C11U C67G, in data set [1], the kcat was found to be 0.000216 ± 2.7e-05 s⁻¹. In addition, the KM in data set [2] amounted to 633 ± 220 µM. In addition, the “self-cleavage kobs at 40 uM GlcN6P” value in data set [6] is 2.61e-05 ± 1.2e-05 s⁻¹. In data set [7], the “self-cleavage kobs at 160 uM GlcN6P” value was determined as 4.28e-05 ± 9.2e-06 s⁻¹. Moreover, the “self-cleavage kobs at 640 uM GlcN6P” value in data set [3] turned out to be 0.000102 ± 1e-05 s⁻¹. Also, in data set [4], the “self-cleavage kobs at 2500 uM GlcN6P” value came out at 0.000218 ± 2.2e-05 s⁻¹. For the same variant, in data set [5], the “self-cleavage kobs at 10000 uM GlcN6P” value stood at 0.000189 ± 1.7e-05 s⁻¹.
U30G U69A: the kcat in data set [1] amounted to 8.59e-05 ± 2.5e-05 s⁻¹. For the same variant, in data set [7], the “self-cleavage kobs at 160 uM GlcN6P” value came out at 3.45e-05 ± 1.7e-05 s⁻¹. Moreover, the “self-cleavage kobs at 640 uM GlcN6P” value in data set [3] was found to be 4.5e-05 ± 1.1e-05 s⁻¹. The “self-cleavage kobs at 2500 uM GlcN6P” value in data set [4] turned out to be 0.00013 ± 2e-05 s⁻¹. Further, in data set [5], the “self-cleavage kobs at 10000 uM GlcN6P” value turned out to be 6.73e-05 ± 1.4e-05 s⁻¹.
